Assays:
Experiment in all cases: indirect ELISA, VLP coated at 2 µg/mL, antibody 10 ng/mL, HRP goat anti-rabbit Fc
HPV59 VLP protein = target: T1, HPV59 VLP protein (human papillomavirus type 59)
T1 construct: Complete VLP protein; no limits of the construct printed, whole entry named; also called HPV59L1

HPV45 VLP protein = target: T2, HPV45 VLP protein (human papillomavirus type 45; human …, UniProt P36741 1-478; P06416 474-499)
T2 construct: range 1-478;range 474-499; Complete VLP protein used as coating protein; also called HPV45L1(1-478L)+HPV33L1(474K-499K)
T2 sequence: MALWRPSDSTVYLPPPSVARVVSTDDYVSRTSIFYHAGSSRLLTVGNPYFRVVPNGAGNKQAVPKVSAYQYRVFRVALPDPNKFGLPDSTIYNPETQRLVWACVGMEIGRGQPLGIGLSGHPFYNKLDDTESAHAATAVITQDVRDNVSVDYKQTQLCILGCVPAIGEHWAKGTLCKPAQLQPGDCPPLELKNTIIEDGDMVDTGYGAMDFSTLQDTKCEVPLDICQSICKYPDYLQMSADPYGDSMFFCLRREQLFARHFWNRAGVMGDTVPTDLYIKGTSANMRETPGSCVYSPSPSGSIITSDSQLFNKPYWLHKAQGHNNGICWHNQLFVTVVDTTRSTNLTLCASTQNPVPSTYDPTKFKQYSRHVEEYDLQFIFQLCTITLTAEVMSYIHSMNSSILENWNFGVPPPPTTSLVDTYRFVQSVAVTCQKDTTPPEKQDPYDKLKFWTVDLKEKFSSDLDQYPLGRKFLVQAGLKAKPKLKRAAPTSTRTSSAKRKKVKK

HPV18 VLP protein = target: T3, HPV18 VLP protein (human papillomavirus type 18)
T3 construct: Complete VLP protein; no limits of the construct printed, whole entry named; also called P18SHELL

HPV31 VLP protein = target: T4, HPV31 VLP protein (human papillomavirus type 31; human …, UniProt P17388 1-475; P06416 474-499)
T4 construct: range 1-475;range 474-499; Complete VLP protein used as coating protein; also called P31SHELL(1-475Y)+HPV33L1(474K-499K)
T4 sequence: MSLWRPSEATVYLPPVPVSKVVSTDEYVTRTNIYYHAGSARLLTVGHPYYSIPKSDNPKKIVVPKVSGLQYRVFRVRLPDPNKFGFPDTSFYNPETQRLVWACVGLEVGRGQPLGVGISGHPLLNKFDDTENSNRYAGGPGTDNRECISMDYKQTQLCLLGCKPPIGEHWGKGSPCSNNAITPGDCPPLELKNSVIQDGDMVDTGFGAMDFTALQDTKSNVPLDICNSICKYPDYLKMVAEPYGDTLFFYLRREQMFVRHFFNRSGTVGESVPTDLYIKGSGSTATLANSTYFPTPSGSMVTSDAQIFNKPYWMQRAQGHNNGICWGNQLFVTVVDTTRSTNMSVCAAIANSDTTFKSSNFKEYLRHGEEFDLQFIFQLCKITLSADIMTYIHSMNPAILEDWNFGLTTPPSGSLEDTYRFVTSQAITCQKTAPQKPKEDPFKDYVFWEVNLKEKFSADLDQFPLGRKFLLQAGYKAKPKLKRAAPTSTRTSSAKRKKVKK

HPV56 VLP protein = target: T5, HPV56 VLP protein (human papillomavirus type 56, UniProt P36743 36-507)
T5 construct: Complete VLP protein; no limits of the construct printed, whole entry named; also called HPV56L1
T5 sequence: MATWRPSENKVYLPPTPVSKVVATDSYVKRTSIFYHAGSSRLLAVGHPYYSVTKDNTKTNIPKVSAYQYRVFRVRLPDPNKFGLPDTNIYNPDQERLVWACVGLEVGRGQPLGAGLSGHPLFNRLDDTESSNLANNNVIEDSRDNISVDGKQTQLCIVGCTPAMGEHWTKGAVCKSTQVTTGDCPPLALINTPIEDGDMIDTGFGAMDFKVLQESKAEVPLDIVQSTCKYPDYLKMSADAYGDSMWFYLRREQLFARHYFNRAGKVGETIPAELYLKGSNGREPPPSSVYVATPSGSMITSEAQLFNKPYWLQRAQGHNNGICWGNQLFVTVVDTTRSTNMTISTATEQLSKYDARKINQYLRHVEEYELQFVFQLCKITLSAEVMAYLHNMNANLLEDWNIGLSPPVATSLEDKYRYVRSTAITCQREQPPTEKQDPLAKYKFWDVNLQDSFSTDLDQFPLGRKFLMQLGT

HPV16 VLP protein = target: T6, HPV16 VLP protein (human papillomavirus type 16, UniProt P03101 1-474)
T6 construct: Complete VLP protein; no limits of the construct printed, whole entry named; also called HPV-16L1
T6 sequence: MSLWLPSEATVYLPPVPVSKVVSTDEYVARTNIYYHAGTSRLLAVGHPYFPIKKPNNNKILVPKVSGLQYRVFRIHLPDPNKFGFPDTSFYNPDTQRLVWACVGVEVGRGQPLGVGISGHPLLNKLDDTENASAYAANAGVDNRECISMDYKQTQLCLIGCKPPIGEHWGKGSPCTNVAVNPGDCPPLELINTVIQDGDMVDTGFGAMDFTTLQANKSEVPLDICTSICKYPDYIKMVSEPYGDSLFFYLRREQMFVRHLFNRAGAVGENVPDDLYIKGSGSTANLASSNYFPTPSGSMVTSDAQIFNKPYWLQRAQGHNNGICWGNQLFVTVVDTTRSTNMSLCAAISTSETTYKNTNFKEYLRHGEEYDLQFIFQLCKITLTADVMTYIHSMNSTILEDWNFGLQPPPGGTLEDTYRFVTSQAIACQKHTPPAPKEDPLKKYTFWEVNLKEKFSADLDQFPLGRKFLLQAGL

B1: monoclonal antibody HPV6-R003 (antibody, V domains shown)
VH: QQQLEESGGGLVKPGGTLTLTCKASGIDLSNYYMCWVRQAPGKGLEWIGCIYTGSGRTYYASWAKGRFTISKASSTTVTLQMTSLTAADTATYFCARDYLGWRASNIWGPGTLVTVSS
VL: ELVMTQTPSSVSAAVGGTVTINCQASQSVYSNNLVWYQQKPGQPPKLLIYGASTLASGVPSRFKGSGSGTQFTLTISDVVCDDAATYYCGGYVSDSTDGTAFGGGTEVVVKG
notes: here built from variable plus constant region so that the signal peptides are left out; In the sandwich ELISA the same antibody is used as coating antibody and, labelled with horseradish peroxidase, as detection antibody; also called anti-HPV6 L1 protein antibody
- OD450-blank (HPV59 VLP protein): 0.041 OD450
- OD450-blank (HPV45 VLP protein): 0.061 OD450
- OD450-blank (HPV18 VLP protein): 0.045 OD450
- OD450-blank (HPV31 VLP protein): 0.047 OD450
- OD450-blank (HPV56 VLP protein): 0.042 OD450
- OD450-blank (HPV16 VLP protein): 0.048 OD450

Reference: patent publication US20240158474A1 (SINO BIOLOGICAL, published 2024)
